Assay results reported in IntAct's records for PubMed 10545448.

B1: Meiosis-inducing protein 1 (Saccharomyces cerevisiae), P21190 (parent)
chain: MQADMHGKLHAALEDGFFLFPFEQQQQPNIYYDTTTDQEDRPCFSFGSTISPRSWHFEKSDKIASSQLQNLVHTQPIHLINPQILFNEEFLNLENIDSQPISKETKTTKDCTMATGPERGKKSSESTRSSSLSSLFSNDESASTFHSSFNNHDNFQKSNRNGDDIDISDTIKYETNTNAQKDIKIFQENFEFNEFPYTQDFYPYTTNYTYSKPTNIHESINSKNTDSYSQYQDQFPPHTDNIHSFNNRHYSNHKSTNCNYYNNTSNNNNASDNVYEADPFIDEPQVPSYYYPLEIAFDVEKSPPPSLQKLNSKELEFLKKLNSKLSRYAAAYSFSSSNDQDYYDKVRFQEISYKFSKTYS
partner: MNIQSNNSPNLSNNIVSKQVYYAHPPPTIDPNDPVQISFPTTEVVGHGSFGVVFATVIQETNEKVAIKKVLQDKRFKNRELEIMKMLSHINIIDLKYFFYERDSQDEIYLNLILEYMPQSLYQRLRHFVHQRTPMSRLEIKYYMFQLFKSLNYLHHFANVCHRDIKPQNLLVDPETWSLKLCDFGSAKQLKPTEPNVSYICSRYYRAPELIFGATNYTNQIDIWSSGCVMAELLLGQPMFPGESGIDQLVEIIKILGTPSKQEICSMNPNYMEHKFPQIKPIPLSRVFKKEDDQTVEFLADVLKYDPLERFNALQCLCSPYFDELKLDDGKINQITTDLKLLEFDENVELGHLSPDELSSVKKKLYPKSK
B2: Meiosis-inducing protein 1 (Saccharomyces cerevisiae), P21190 (parent)
chain: B1 chain
partner: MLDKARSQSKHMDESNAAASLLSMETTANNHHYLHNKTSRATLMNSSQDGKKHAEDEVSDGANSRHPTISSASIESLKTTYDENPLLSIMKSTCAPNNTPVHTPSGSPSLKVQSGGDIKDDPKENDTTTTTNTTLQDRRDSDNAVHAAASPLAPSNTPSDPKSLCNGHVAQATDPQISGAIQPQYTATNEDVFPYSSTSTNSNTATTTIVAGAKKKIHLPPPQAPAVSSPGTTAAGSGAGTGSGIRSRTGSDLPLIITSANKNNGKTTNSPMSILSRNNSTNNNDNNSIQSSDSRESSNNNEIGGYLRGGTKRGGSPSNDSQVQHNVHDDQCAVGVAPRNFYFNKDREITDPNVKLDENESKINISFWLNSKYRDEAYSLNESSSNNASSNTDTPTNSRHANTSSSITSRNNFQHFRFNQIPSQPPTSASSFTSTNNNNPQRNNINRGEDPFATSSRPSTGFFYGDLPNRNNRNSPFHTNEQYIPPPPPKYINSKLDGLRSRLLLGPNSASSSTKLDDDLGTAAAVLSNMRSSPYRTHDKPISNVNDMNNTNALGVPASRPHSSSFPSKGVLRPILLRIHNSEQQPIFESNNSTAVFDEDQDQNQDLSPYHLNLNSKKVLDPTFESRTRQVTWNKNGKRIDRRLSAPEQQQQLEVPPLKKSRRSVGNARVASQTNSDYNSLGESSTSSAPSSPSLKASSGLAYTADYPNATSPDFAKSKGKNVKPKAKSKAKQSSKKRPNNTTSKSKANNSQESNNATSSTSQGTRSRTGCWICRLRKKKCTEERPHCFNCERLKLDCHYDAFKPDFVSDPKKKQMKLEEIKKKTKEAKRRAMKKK

Variants of: B1
Conditions: with rim11_yeast RIM11, P38615

effect of a mutation on the interaction	Variant
with no effect	MQADMHGKLHAALEDGFFLFPFEQQQQPNIYYDTTTDQEDRPCFSFGSTISPRSWHFEKSDKIASSQLQNLVHTQPIHLINPQILFNEEFLNLENIDSQPISKETKTTKDCTMATGPERGKKSSESTRSSSLSSLFSNDESASTFHSSFNNHDNFQKSNRNGDDIDISDTIKYETNTNAQKDIKIFQENFEFNEFPYTQDFYPYTTNYTYSKPTNIHESINSKNTDSYSQYQDQFPPHTDNIHSFNNRHYSNHKSTNCNYYNNTSNNNNASDNVYEADPFIDEPQVPSYYYPLEIAFDVEKSPPPSLQKLNSKELEFLKKLNSKLSRYAAAYSFSSSNDQDAADKVRFQEIAAKFAKAAA [Y342A;Y343A;S352A;Y353A;S356A;T358A;Y359A;S360A]
with no effect	MQADMHGKLHAALEDGFFLFPFEQQQQPNIYYDTTTDQEDRPCFSFGSTISPRSWHFEKSDKIASSQLQNLVHTQPIHLINPQILFNEEFLNLENIDSQPISKETKTTKDCTMATGPERGKKSSESTRSSSLSSLFSNDESASTFHSSFNNHDNFQKSNRNGDDIDISDTIKYETNTNAQKDIKIFQENFEFNEFPYTQDFYPYTTNYTYSKPTNIHESINSKNTDSYSQYQDQFPPHTDNIHSFNNRHYSNHKSTNCNYYNNTSNNNNASDNVYEADPFIDEPQVPSYYYPLEIAFDVEKSPPPSLQKLNSKELEFLKKLNSKLSRYAAAYSFSSSNDQDYYDKVKFQEISYKFSKTYF [R347K;S360F]
with no effect	MQADMHGKLHAALEDGFFLFPFEQQQQPNIYYDTTTDQEDRPCFSFGSTISPRSWHFEKSDKIASSQLQNLVHTQPIHLINPQILFNEEFLNLENIDSQPISKETKTTKDCTMATGPERGKKSSESTRSSSLSSLFSNDESASTFHSSFNNHDNFQKSNRNGDDIDISDTIKYETNTNAQKDIKIFQENFEFNEFPYTQDFYPYTTNYTYSKPTNIHESINSKNTDSYSQYQDQFPPHTDNIHSFNNRHYSNHKSTNCNYYNNTSNNNNASDNVYEADPFIDEPQVPSYYYPLEIAFDVEKSPPPSLQKLNSKELEFLKKFNSKLSRYAAAYSFSSSNDQDYYDKVRFQEISYKFSKTYF [L321F;S360F]

Variants of: B1
Conditions: with rim11_yeast RIM11, P38615
Remark: another data set of the same source

effect of a mutation on the interaction	Variant
disrupting interaction strength	MQADMHGKLHAALEDGFFLFPFEQQQQPNIYYDTTTDQEDRPCFSFGSTISPRSWHFEKSDKIASSQLQNLVHTQPIHLINPQILFNEEFLNLENIDSQPISKETKTTKDCTMATGPERGKKSSESTRSSSLSSLFSNDESASTFHSSFNNHDNFQKSNRNGDDIDISDTIKYETNTNAQKDIKIFQENFEFNEFPYTQDFYPYTTNYTYSKPTNIHESINSKNTDSYSQYQDQFPPHTDNIHSFNNRHYSNHKSTNCNYYNNTSNNNNASDNVYEADPFIDEPQVPSYYYPLEIAFDVEKSPPPSLQKLNSKELEFLKKLNSKLSRYAAAYSFSSSNDQDYYDKVKFQEISYKFSKTYS [R347K]
decreasing interaction strength	MQADMHGKLHAALEDGFFLFPFEQQQQPNIYYDTTTDQEDRPCFSFGSTISPRSWHFEKSDKIASSQLQNLVHTQPIHLINPQILFNEEFLNLENIDSQPISKETKTTKDCTMATGPERGKKSSESTRSSSLSSLFSNDESASTFHSSFNNHDNFQKSNRNGDDIDISDTIKYETNTNAQKDIKIFQENFEFNEFPYTQDFYPYTTNYTYSKPTNIHESINSKNTDSYSQYQDQFPPHTDNIHSFNNRHYSNHKSTNCNYYNNTSNNNNASDNVYEADPFIDEPQVPSYYYPLEIAFDVEKSPPPSLQKLNSKELEFLKKLNSKLSRYAAAYSFSSSNDQDYYDKVKFQEISYKFSKTYF [R347K;S360F]

Continued, variant first:

Variant	effect of a mutation on the interaction
MQADMHGKLHAALEDGFFLFPFEQQQQPNIYYDTTTDQEDRPCFSFGSTISPRSWHFEKSDKIASSQLQNLVHTQPIHLINPQILFNEEFLNLENIDSQPISKETKTTKDCTMATGPERGKKSSESTRSSSLSSLFSNDESASTFHSSFNNHDNFQKSNRNGDDIDISDTIKYETNTNAQKDIKIFQENFEFNEFPYTQDFYPYTTNYTYSKPTNIHESINSKNTDSYSQYQDQFPPHTDNIHSFNNRHYSNHKSTNCNYYNNTSNNNNASDNVYEADPFIDEPQVPSYYYPLEIAFDVEKSPPPSLQKLNSKELEFLKKFNSKLSRYAAAYSFSSSNDQDYYDKVRFQEISYKFSKTYS [L321F]	disrupting interaction strength
MQADMHGKLHAALEDGFFLFPFEQQQQPNIYYDTTTDQEDRPCFSFGSTISPRSWHFEKSDKIASSQLQNLVHTQPIHLINPQILFNEEFLNLENIDSQPISKETKTTKDCTMATGPERGKKSSESTRSSSLSSLFSNDESASTFHSSFNNHDNFQKSNRNGDDIDISDTIKYETNTNAQKDIKIFQENFEFNEFPYTQDFYPYTTNYTYSKPTNIHESINSKNTDSYSQYQDQFPPHTDNIHSFNNRHYSNHKSTNCNYYNNTSNNNNASDNVYEADPFIDEPQVPSYYYPLEIAFDVEKSPPPSLQKLNSKELEFLKKFNSKLSRYAAAYSFSSSNDQDYYDKVRFQEISYKFSKTYF [L321F;S360F]	decreasing interaction strength

Variants of: B2
Conditions: with ume6_yeast UME6, P39001

effect of a mutation on the interaction	Variant
disrupting interaction strength	MQADMHGKLHAALEDGFFLFPFEQQQQPNIYYDTTTDQEDRPCFSFGSTISPRSWHFEKSDKIASSQLQNLVHTQPIHLINPQILFNEEFLNLENIDSQPISKETKTTKDCTMATGPERGKKSSESTRSSSLSSLFSNDESASTFHSSFNNHDNFQKSNRNGDDIDISDTIKYETNTNAQKDIKIFQENFEFNEFPYTQDFYPYTTNYTYSKPTNIHESINSKNTDSYSQYQDQFPPHTDNIHSFNNRHYSNHKSTNCNYYNNTSNNNNASDNVYEADPFIDEPQVPSYYYPLEIAFDVEKSPPPSLQKLNSKELEFLKKLNSKLSRYAAAYSFSSSNDQDAADKVRFQEIAAKFAKAAA [Y342A;Y343A;S352A;Y353A;S356A;T358A;Y359A;S360A]
decreasing interaction strength	MQADMHGKLHAALEDGFFLFPFEQQQQPNIYYDTTTDQEDRPCFSFGSTISPRSWHFEKSDKIASSQLQNLVHTQPIHLINPQILFNEEFLNLENIDSQPISKETKTTKDCTMATGPERGKKSSESTRSSSLSSLFSNDESASTFHSSFNNHDNFQKSNRNGDDIDISDTIKYETNTNAQKDIKIFQENFEFNEFPYTQDFYPYTTNYTYSKPTNIHESINSKNTDSYSQYQDQFPPHTDNIHSFNNRHYSNHKSTNCNYYNNTSNNNNASDNVYEADPFIDEPQVPSYYYPLEIAFDVEKSPPPSLQKLNSKELEFLKKLNSKLSRYAAAYSFSSSNDQDYYDKVRFQEIAYKFAKTYA [S352A;S356A;S360A]
disrupting interaction strength	MQADMHGKLHAALEDGFFLFPFEQQQQPNIYYDTTTDQEDRPCFSFGSTISPRSWHFEKSDKIASSQLQNLVHTQPIHLINPQILFNEEFLNLENIDSQPISKETKTTKDCTMATGPERGKKSSESTRSSSLSSLFSNDESASTFHSSFNNHDNFQKSNRNGDDIDISDTIKYETNTNAQKDIKIFQENFEFNEFPYTQDFYPYTTNYTYSKPTNIHESINSKNTDSYSQYQDQFPPHTDNIHSFNNRHYSNHKSTNCNYYNNTSNNNNASDNVYEADPFIDEPQVPSYYYPLEIAFDVEKSPPPSLQKLNSKELEFLKKLNSKLSRYAAAYSFSSSNDQDYYDKVKFQEISYKFSKTYF [R347K;S360F]
disrupting interaction strength	MQADMHGKLHAALEDGFFLFPFEQQQQPNIYYDTTTDQEDRPCFSFGSTISPRSWHFEKSDKIASSQLQNLVHTQPIHLINPQILFNEEFLNLENIDSQPISKETKTTKDCTMATGPERGKKSSESTRSSSLSSLFSNDESASTFHSSFNNHDNFQKSNRNGDDIDISDTIKYETNTNAQKDIKIFQENFEFNEFPYTQDFYPYTTNYTYSKPTNIHESINSKNTDSYSQYQDQFPPHTDNIHSFNNRHYSNHKSTNCNYYNNTSNNNNASDNVYEADPFIDEPQVPSYYYPLEIAFDVEKSPPPSLQKLNSKELEFLKKLNSKLSRYAAAYSFSSSNDQDYYDKVKFQEISYKFSKTYS [R347K]

Continued, variant first:

Variant	effect of a mutation on the interaction
MQADMHGKLHAALEDGFFLFPFEQQQQPNIYYDTTTDQEDRPCFSFGSTISPRSWHFEKSDKIASSQLQNLVHTQPIHLINPQILFNEEFLNLENIDSQPISKETKTTKDCTMATGPERGKKSSESTRSSSLSSLFSNDESASTFHSSFNNHDNFQKSNRNGDDIDISDTIKYETNTNAQKDIKIFQENFEFNEFPYTQDFYPYTTNYTYSKPTNIHESINSKNTDSYSQYQDQFPPHTDNIHSFNNRHYSNHKSTNCNYYNNTSNNNNASDNVYEADPFIDEPQVPSYYYPLEIAFDVEKSPPPSLQKLNSKELEFLKKFNSKLSRYAAAYSFSSSNDQDYYDKVRFQEISYKFSKTYF [L321F;S360F]	decreasing interaction strength
MQADMHGKLHAALEDGFFLFPFEQQQQPNIYYDTTTDQEDRPCFSFGSTISPRSWHFEKSDKIASSQLQNLVHTQPIHLINPQILFNEEFLNLENIDSQPISKETKTTKDCTMATGPERGKKSSESTRSSSLSSLFSNDESASTFHSSFNNHDNFQKSNRNGDDIDISDTIKYETNTNAQKDIKIFQENFEFNEFPYTQDFYPYTTNYTYSKPTNIHESINSKNTDSYSQYQDQFPPHTDNIHSFNNRHYSNHKSTNCNYYNNTSNNNNASDNVYEADPFIDEPQVPSYYYPLEIAFDVEKSPPPSLQKLNSKELEFLKKFNSKLSRYAAAYSFSSSNDQDYYDKVRFQEISYKFSKTYS [L321F]	disrupting interaction strength
